Laboratory results: article PMC4300183, “Cloning and Characterization of a Weissella confusa Dextransucrase and Its Application in High Fibre Baking” (PLoS ONE, 2015)

Substrate: OC[C@H]1O[C@@](CO)(O[C@H]2O[C@H](CO)[C@@H](O)[C@H](O)[C@H]2O)[C@@H](O)[C@@H]1O
Experiment: purified protein
Format: biochemical, Weissella confusa
Settings: 20 mM Na-acetate pH 5.4, 2 mM CaCl2, 35 °C, sucrose 3-146 mM, labelled compound

B1: WcE392-rDSR (Wc392-rDSR; recombinant WcE392-DSR dextransucrase) (Weissella confusa) (protein)
chain: DQLATQPAESAEVTQHETPTDSQAPDSVTSLSDTKETVQSSAASVDSSHVATSSASETTSSASETSTKTSSAASSVASSATMLSATSSASSSVDATITDGYHDEGGNWVYYRDGKKLTGRQLIDTFNVYFDEDGHQVKGDWRETDGKRAYYDGQEGRALTETQVVDGAVRGFDADGYEITNGFGQTSNQDTYYFDNDGNHVTGIQVIDGKTYNFDDQGRMLKGIATEVNGTMMYFDDQTGVATPTSDPKFNPELEPVPNQNAQHNAAHGTTPEDFDNMAGYLTADTWYRPNDILDNGETWRESTPTEYRPLIETWWPTKQTQADYVNYMNDALQVSTKTVSAADSEATLTAAADAIQAAIERQITVKQSTDWLRELMAAFVVTQPQWNKSSEDENDDHLQGGALSFENNPDTDANSDYRLMNRTPTNQTGERLYHIDDSLGGYELLLANDVDNSNPQVQAEQLNWLYYLMNFGSITANDPDANFDAIRVDAVDNVDADLLQLAAQYFRDAYGMATNDATSNQHLSILEDWSHNDPAYMNEHGNDQLTMDDYMHTQLIWSLTKSDAQRGKMDRFLDFYLTNRANDNTENEAQPSYSFVRAHDSEVQTVIAEIVTKLHPEAGNGLMPTQAQMDEAFKIYNADQKKAVKEYTHYNMPSAYAMLLTNKDVIPRVYYGDLYTDDGQYMATKSPYFDAIDAMLKARTKYVAGGQTMAVDKNDVLTSVRFGKGAMTASDAGTAETRTEGVGLIISNNHDLKMADSDQVVLHMGIAHANQAFRAVVMTTATGLAIYNDDNAPIRYTDANGDLIFTNADVYGVLNPQVSGFLAMWVPVGASATQDARTAASTEATTDGSAYHSNAALDSQVIFEGFSNFQAMPTTHDEYTNVVLAKHTDLLTDWSVTSVQLAPQYRSSTDGTFLDSIIQNGYAFTDRYDLGFGTPTKYGDDNDLRDVIKSLHANGIQVMADFVPDQLYALPGKELVQVTRTNNMGEPDKNSEIQHLMYVTSTRGGGEYQKQYGGEFLAKLRELYPDLFTTDQISTGKPIDDSVKIKEWSAKYLNGTAIQGRGAGYVLRDAGNNSYYRVTANTGNTNLPNQMLGKPVLTGFQKLADGYHFETLSGSAAKDAFIKDDNGELYYFDNNGVMATGEQKVRGGQYFFLPNGIALTDAFIETEDGHMRYYDKNGQLVVNQYVTDHQANAFRVDADGNVIRSQALTVDGNEQYFGSNGVQAKAQMVRDENGQAHYYAAGNGNMIKNQFILDTDGHWLYADQNGNLARGMTTLNQGTLYFDDQNHQVKDDFVYDADGVHYFNGTNGAEVKNDYAYHNGKWYYFDENGRMVTGLQTINGELRYFGADGAQLKGGQATNQKTNQTYVFDETNGSGKLVTI
notes: secreted by Lactococcus lactis NZ9800 (pNZ8037), Ni-NTA purified; predicted mature 1381 residues, 152 kDa (~160 kDa on SDS-PAGE); precursor printed as 1432 residues, but 4272 bp ORF implies 1423
Km: 14.7 ± 2.3 mM
Vmax: 8.2 µmol/min/mg
kcat: 23.2 ± 1.1 s⁻¹
kcat/Km: 1600 ± 300 M⁻¹ s⁻¹
